Laboratory results: CN116199779A (BEIJING DONGFANG BIOTECH CO LTD; BEIJING JINGYI TAIXIANG …, dated 2023)
Changes are numbered by the printed parent chain. Read-outs that look alike come from different tables or passages of the source. Blank lines part the entries; values can stand above or below the binder they belong to.

Legend:
THP-1细胞表面的LILRB4 [1] = molecular target: T1, THP-1细胞表面的LILRB4 (human, UniProt Q8NHJ6 22-448); assay: flow cytometry on THP-1 cells
T1 construct: whole, on cells; Endogenous LILRB4 on THP-1 cells; also called 人单核细胞白血病细胞(THP-1)表面LILRB4

THP-1细胞表面的LILRB4 [2] = molecular target: T1, THP-1细胞表面的LILRB4; assay: cell-based or functional assay
LILRB4抗原 (人LILRB4蛋白胞外段) [3] = molecular target: T2, LILRB4抗原 (人LILRB4蛋白胞外段) (human, UniProt Q8NHJ6 22-259); assay: ELISA, coated LILRB4, anti-human IgG-HRP
T2 construct: extracellular domain; also called 白细胞免疫球蛋白样受体亚家族B成员4

THP-1细胞表面的LILRB4 [4] = molecular target: T1, THP-1细胞表面的LILRB4; assay: flow cytometry competition on THP-1 cells; competitor FITC-labelled ApoE
THP-1细胞表面的LILRB4 [5] = molecular target: T1, THP-1细胞表面的LILRB4; assay: cell-based or functional assay; remark: listed apart in the source
THP-1细胞表面的LILRB4 [6] = molecular target: T1, THP-1细胞表面的LILRB4; assay: cell-based or functional assay; remark: listed apart in the source
LILRB5 [7] = molecular target: T3, LILRB5 (UniProt O75023 24-458, limits assumed); assay: ELISA, coated protein 100ng/well
T3 construct: construct not described

LILRA5 [8] = molecular target: T4, LILRA5 (UniProt A6NI73 42-268, limits assumed); assay: ELISA, coated protein 100ng/well
T4 construct: construct not described

LILRA3 [9] = molecular target: T5, LILRA3 (UniProt Q8N6C8 24-439); assay: ELISA, coated protein 100ng/well
T5 construct: construct not described

LILRA2 [10] = molecular target: T6, LILRA2 (UniProt Q8N149 24-449, limits assumed); assay: ELISA, coated protein 100ng/well
T6 construct: construct not described

LILRB1 [11] = molecular target: T7, LILRB1 (UniProt Q8NHL6 24-461, limits assumed); assay: ELISA, coated protein 100ng/well
T7 construct: construct not described

LILRB3 [12] = molecular target: T8, LILRB3 (UniProt O75022 24-443, limits assumed); assay: ELISA, coated protein 100ng/well
T8 construct: construct not described

LILRA1 [13] = molecular target: T9, LILRA1 (UniProt O75019 17-461, limits assumed); assay: ELISA, coated protein 100ng/well
T9 construct: construct not described

LILRA4 [14] = molecular target: T10, LILRA4 (UniProt P59901 24-446, limits assumed); assay: ELISA, coated protein 100ng/well
T10 construct: construct not described

LILRB2 [15] = molecular target: T11, LILRB2 (UniProt Q8N423 22-460, limits assumed); assay: ELISA, coated protein 100ng/well
T11 construct: construct not described

LILRA6 [16] = molecular target: T12, LILRA6 (UniProt Q6PI73 24-447, limits assumed); assay: ELISA, coated protein 100ng/well
T12 construct: construct not described

LILRB4抗原 (人LILRB4蛋白胞外段) [17] = molecular target: T2, LILRB4抗原 (人LILRB4蛋白胞外段); assay: ELISA, coated LILRB4, anti-mouse IgG-HRP
THP-1细胞表面的LILRB4 [18] = molecular target: T1, THP-1细胞表面的LILRB4; assay: flow cytometry on THP-1 cells, FITC anti-mouse IgG
LILRB5 [19] = molecular target: T3, LILRB5; assay: ELISA, coated protein 100ng/well, antibody 50μg/mL
LILRA5 [20] = molecular target: T4, LILRA5; assay: ELISA, coated protein 100ng/well, antibody 50μg/mL
LILRA3 [21] = molecular target: T5, LILRA3; assay: ELISA, coated protein 100ng/well, antibody 50μg/mL
LILRA2 [22] = molecular target: T6, LILRA2; assay: ELISA, coated protein 100ng/well, antibody 50μg/mL
LILRB1 [23] = molecular target: T7, LILRB1; assay: ELISA, coated protein 100ng/well, antibody 50μg/mL
LILRB3 [24] = molecular target: T8, LILRB3; assay: ELISA, coated protein 100ng/well, antibody 50μg/mL
LILRA1 [25] = molecular target: T9, LILRA1; assay: ELISA, coated protein 100ng/well, antibody 50μg/mL
LILRB4抗原 (人LILRB4蛋白胞外段) [26] = molecular target: T2, LILRB4抗原 (人LILRB4蛋白胞外段); assay: ELISA, coated protein 100ng/well, antibody 50μg/mL
LILRA4 [27] = molecular target: T10, LILRA4; assay: ELISA, coated protein 100ng/well, antibody 50μg/mL
LILRB2 [28] = molecular target: T11, LILRB2; assay: ELISA, coated protein 100ng/well, antibody 50μg/mL
LILRA6 [29] = molecular target: T12, LILRA6; assay: ELISA, coated protein 100ng/well, antibody 50μg/mL
THP-1细胞表面的LILRB4 [30] = molecular target: T1, THP-1细胞表面的LILRB4; assay: flow cytometry competition on THP-1 cells; competitor FITC-labelled ApoE; remark: listed apart in the source

T3 sequence (O75023 24-458 limits assumed): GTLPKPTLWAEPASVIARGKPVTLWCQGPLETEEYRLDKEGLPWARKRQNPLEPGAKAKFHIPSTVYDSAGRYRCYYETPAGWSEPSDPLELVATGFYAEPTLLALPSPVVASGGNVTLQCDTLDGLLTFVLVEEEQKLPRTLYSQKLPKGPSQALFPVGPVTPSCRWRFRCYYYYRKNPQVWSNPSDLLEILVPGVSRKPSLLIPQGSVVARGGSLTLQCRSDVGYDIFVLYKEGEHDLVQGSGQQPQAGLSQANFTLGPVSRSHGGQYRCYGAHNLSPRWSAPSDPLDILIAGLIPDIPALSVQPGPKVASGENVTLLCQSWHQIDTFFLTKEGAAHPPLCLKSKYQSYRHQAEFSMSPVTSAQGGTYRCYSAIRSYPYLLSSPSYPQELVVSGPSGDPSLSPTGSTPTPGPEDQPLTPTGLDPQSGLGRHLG
T12 sequence (Q6PI73 24-447 limits assumed): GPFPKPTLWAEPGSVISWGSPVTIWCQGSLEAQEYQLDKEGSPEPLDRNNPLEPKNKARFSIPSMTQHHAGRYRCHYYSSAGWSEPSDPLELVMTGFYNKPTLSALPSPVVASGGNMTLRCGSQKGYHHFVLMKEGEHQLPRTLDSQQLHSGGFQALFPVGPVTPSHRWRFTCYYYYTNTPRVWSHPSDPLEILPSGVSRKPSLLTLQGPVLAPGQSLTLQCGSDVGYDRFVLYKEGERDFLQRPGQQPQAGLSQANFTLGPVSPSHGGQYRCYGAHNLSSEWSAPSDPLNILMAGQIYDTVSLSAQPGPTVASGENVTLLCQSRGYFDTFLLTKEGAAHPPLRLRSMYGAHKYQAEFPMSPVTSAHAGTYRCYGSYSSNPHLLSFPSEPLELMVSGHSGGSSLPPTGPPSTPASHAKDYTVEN
T11 sequence (Q8N423 22-460 limits assumed): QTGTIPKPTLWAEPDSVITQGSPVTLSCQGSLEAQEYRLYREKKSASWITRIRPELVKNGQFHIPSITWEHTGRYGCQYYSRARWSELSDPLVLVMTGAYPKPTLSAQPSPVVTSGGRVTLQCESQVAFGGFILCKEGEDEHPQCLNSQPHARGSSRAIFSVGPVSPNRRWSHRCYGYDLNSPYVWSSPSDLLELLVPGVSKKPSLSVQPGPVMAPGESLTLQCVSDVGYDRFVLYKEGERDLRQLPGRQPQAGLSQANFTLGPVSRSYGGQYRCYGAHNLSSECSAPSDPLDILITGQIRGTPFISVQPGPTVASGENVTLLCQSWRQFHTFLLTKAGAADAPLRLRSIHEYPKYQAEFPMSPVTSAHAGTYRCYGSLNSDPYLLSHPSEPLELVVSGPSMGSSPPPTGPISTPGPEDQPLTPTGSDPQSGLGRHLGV
T5 sequence (Q8N6C8 24-439 limits assumed): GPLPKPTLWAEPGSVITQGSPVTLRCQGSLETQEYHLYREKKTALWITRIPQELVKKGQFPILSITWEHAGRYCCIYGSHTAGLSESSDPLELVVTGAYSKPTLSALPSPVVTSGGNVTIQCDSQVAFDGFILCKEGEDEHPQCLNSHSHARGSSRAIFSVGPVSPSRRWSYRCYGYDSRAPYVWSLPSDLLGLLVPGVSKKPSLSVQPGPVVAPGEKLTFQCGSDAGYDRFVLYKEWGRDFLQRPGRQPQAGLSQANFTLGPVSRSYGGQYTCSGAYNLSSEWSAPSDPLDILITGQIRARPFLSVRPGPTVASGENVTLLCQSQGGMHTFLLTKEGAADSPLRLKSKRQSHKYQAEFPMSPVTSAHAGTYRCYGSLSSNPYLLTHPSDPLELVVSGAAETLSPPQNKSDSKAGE
T7 sequence (Q8NHL6 24-461 limits assumed): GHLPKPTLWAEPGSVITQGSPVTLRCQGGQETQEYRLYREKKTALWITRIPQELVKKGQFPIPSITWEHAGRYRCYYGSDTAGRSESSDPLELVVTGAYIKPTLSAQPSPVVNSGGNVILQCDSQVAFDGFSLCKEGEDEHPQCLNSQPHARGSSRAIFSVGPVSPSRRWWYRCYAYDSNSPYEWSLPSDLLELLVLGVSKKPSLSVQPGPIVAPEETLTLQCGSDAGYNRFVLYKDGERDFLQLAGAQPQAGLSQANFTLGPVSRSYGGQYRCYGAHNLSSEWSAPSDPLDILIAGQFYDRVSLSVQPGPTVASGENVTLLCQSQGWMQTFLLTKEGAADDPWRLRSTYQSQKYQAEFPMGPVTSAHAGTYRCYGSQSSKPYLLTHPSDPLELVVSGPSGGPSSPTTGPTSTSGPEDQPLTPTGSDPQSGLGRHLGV
T8 sequence (O75022 24-443 limits assumed): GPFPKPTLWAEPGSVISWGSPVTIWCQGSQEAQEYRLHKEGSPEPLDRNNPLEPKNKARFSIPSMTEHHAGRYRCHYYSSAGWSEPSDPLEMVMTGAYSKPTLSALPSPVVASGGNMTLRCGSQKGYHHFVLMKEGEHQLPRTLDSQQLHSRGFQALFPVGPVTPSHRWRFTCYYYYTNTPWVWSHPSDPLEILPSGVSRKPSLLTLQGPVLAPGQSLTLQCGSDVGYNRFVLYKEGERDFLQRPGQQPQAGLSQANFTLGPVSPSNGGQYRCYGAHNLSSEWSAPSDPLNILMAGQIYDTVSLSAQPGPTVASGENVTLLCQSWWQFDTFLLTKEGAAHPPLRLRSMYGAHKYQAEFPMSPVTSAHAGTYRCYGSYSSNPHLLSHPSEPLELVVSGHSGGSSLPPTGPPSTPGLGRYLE
T10 sequence (P59901 24-446 limits assumed): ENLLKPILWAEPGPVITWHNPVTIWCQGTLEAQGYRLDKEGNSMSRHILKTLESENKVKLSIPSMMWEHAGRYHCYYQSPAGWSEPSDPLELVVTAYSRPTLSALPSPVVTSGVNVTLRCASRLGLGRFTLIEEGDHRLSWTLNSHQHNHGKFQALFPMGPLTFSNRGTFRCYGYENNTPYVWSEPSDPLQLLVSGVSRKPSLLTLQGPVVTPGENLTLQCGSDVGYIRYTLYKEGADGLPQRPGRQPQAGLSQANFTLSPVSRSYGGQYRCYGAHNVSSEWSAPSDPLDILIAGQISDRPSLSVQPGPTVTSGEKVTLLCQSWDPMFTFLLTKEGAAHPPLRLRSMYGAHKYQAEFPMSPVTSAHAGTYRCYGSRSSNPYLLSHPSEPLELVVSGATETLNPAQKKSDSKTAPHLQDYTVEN
T4 sequence (A6NI73 42-268 limits assumed): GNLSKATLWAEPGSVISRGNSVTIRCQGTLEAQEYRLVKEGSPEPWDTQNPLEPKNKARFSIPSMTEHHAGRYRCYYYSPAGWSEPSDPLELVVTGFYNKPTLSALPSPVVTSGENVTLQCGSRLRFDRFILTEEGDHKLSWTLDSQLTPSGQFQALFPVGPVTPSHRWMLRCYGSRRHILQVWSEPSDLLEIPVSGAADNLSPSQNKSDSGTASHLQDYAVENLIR
T6 sequence (Q8N149 24-449 limits assumed): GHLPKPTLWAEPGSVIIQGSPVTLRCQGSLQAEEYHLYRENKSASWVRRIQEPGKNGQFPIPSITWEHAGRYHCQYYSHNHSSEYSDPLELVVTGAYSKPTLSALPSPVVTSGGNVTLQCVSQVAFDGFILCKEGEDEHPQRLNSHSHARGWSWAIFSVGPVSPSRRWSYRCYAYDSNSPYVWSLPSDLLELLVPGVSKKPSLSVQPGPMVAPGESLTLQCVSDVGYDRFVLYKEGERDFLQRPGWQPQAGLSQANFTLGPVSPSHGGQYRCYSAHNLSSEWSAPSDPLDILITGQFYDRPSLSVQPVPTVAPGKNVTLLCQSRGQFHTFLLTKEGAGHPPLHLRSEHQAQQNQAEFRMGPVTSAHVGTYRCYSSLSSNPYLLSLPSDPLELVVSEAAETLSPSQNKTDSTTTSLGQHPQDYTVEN
T9 sequence (O75019 17-461 limits assumed): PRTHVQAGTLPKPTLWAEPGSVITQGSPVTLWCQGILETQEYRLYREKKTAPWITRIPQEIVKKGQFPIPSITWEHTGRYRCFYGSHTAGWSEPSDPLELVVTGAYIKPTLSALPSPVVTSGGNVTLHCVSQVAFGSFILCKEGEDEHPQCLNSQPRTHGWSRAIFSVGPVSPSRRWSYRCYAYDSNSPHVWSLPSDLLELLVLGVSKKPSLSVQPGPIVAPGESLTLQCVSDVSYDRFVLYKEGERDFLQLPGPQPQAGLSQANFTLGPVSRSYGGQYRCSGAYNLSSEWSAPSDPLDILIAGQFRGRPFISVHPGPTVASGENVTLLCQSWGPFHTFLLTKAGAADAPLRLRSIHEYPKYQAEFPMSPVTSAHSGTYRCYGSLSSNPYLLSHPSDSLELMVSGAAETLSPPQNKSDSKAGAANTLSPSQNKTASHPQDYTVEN

B1: 人源化抗体HA-Ⅰ (human IgG1, Ck) (antibody, V domains shown)
VH: EVQLVESGGGLVKPGGSLRLSCAASGFTFSSYTMSWVRQAPGKGLEWVSTISSGGTYTYYPDSVKGRFTISRDNAKNSLYLQMNSLRAEDTAVYYCARDGYDGFDYWGQGTTVTVSS
VL: DIVMTQTPLSLSVTPGQPASISCRSSQSLAHSNGNTYLHWYLQKPGQSPQLLIYKVSNRFSGVPDRFSGSGSGTDFTLKISRVEAEDVGVYYCSQSTHVPTFGGGTKVEIKR
notes: also called HA-I
EC50 (THP-1细胞表面的LILRB4 [1]): 0.181 µg/mL | IC50 of inhibition of ARG1 secretion by THP-1 cells with ApoE (arginase activity) (THP-1细胞表面的LILRB4 [2]): 31.2 µg/mL | EC50 (LILRB4抗原 (人LILRB4蛋白胞外段) [3]): 0.0174 µg/mL | IC50 (THP-1细胞表面的LILRB4 [4]): 0.48 µg/mL | IC50, NF-κB luciferase reporter in THP-1-NF-κB-Luc cells stimulated with ApoE (THP-1细胞表面的LILRB4 [5]): 0.756 µg/mL

B3: MB-Ⅰ 鼠源抗LILRB4单克隆抗体 (mouse IgG1, Ck) (antibody)
heavy: QVQLQESGAELVKPGASVKLSCKASGYTFTNYWMHWVKQRPGQGLEWIGEINPSNGRTNYNEKFKTKATLTVDKSSSTAYMQLSSLTSEDSAVYYCARWGQLGLREGYYAVDYWGQGTSVTVSSAKTTPPSVYPLAPGSAAQTNSMVTLGCLVKGYFPEPVTVTWNSGSLSSGVHTFPAVLQSDLYTLSSSVTVPSSTWPSETVTCNVAHPASSTKVDKKIVPRDCGCKPCICTVPEVSSVFIFPPKPKDVLTITLTPKVTCVVVDISKDDPEVQFSWFVDDVEVHTAQTQPREEQFNSTFRSVSELPIMHQDWLNGKEFKCRVNSAAFPAPIEKTISKTKGRPKAPQVYTIPPPKEQMAKDKVSLTCMITDFFPEDITVEWQWNGQPAENYKNTQPIMDTDGSYFVYSKLNVQKSNWEAGNTFTCSVLHEGLHNHHTEKSLSHSPG
light: DIVMTQSPSSLSASLGDRVTISCRASQDISNYLNWYQQKPDGTVKLLIYYTSRLHSGVPSRFSGSGSGTDYSLTISNLEQEDIATYFCQQGNTLPPTFGGGTKLEIKADAAPTVSIFPPSSEQLTSGGASVVCFLNNFYPKDINVKWKIDGSERQNGVLNSWTDQDSKDSTYSMSSTLTLTKDEYERHNSYTCEATHKTSTSPIVKSFNRNEC
notes: also called MB-I; 鼠源抗体MB-Ⅰ
IC50 of inhibition of ARG1 secretion by THP-1 cells with ApoE (arginase activity) (THP-1细胞表面的LILRB4 [6]): 46 µg/mL | binding result (LILRB5 [7]): no binding (tested: 50μg/mL) | binding result (LILRA5 [8]): no binding (tested: 50μg/mL) | binding result (LILRA3 [9]): no binding (tested: 50μg/mL) | binding result (LILRA2 [10]): no binding (tested: 50μg/mL) | binding result (LILRB1 [11]): no binding (tested: 50μg/mL) | binding result (LILRB3 [12]): no binding (tested: 50μg/mL) | binding result (LILRA1 [13]): no binding (tested: 50μg/mL) | binding result (LILRA4 [14]): no binding (tested: 50μg/mL) | binding result (LILRB2 [15]): no binding (tested: 50μg/mL) | binding result (LILRA6 [16]): no binding (tested: 50μg/mL) | EC50 (LILRB4抗原 (人LILRB4蛋白胞外段) [17]): 0.0128 µg/mL | EC50 (THP-1细胞表面的LILRB4 [18]): 0.351 µg/mL | OD 450nm/630nm (LILRB5 [19]): 0.016 OD | OD 450nm/630nm (LILRA5 [20]): 0.045 OD | OD 450nm/630nm (LILRA3 [21]): 0.056 OD | OD 450nm/630nm (LILRA2 [22]): 0.024 OD | OD 450nm/630nm (LILRB1 [23]): 0.038 OD | OD 450nm/630nm (LILRB3 [24]): 0.022 OD | OD 450nm/630nm (LILRA1 [25]): 0.022 OD | OD 450nm/630nm (LILRB4抗原 (人LILRB4蛋白胞外段) [26]): 2.9 OD | OD 450nm/630nm (LILRA4 [27]): 0.028 OD | OD 450nm/630nm (LILRB2 [28]): 0.055 OD | OD 450nm/630nm (LILRA6 [29]): 0.026 OD | IC50 (THP-1细胞表面的LILRB4 [30]): 0.44 µg/mL

The remaining lines, values ahead:

EC50 (THP-1细胞表面的LILRB4 [1]): 0.186 µg/mL | IC50 of inhibition of ARG1 secretion by THP-1 cells with ApoE (arginase activity) (THP-1细胞表面的LILRB4 [2]): 98.5 µg/mL | EC50 (LILRB4抗原 (人LILRB4蛋白胞外段) [3]): 0.014 µg/mL | IC50 (THP-1细胞表面的LILRB4 [4]): 2.56 µg/mL | IC50, NF-κB luciferase reporter in THP-1-NF-κB-Luc cells stimulated with ApoE (THP-1细胞表面的LILRB4 [5]): 3.44 µg/mL
B2: 人源化抗体HA-Ⅲ (human IgG1, Ck) (antibody, V domains shown)
VH: B1 VH with S49A, A97T
VL: B1 VL with Q50K, Y92F
notes: also called HA-III

EC50 (THP-1细胞表面的LILRB4 [1]): 0.445 µg/mL | EC50 (LILRB4抗原 (人LILRB4蛋白胞外段) [3]): 0.0655 µg/mL
B4: 嵌合抗体CB-Ⅰ (MB-Ⅰ variable regions, human IgG1, Ck) (antibody)
heavy: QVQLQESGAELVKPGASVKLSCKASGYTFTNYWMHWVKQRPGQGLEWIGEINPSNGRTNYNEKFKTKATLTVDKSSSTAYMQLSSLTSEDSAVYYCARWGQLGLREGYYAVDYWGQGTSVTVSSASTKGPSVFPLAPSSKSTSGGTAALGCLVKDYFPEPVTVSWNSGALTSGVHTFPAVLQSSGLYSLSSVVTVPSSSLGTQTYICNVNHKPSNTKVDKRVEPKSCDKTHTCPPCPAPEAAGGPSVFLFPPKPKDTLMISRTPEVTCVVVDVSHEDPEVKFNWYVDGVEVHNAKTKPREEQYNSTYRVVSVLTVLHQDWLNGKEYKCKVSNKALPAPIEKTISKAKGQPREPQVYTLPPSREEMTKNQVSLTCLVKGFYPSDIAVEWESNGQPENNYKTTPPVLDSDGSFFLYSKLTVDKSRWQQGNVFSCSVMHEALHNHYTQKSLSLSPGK
light: DIVMTQSPSSLSASLGDRVTISCRASQDISNYLNWYQQKPDGTVKLLIYYTSRLHSGVPSRFSGSGSGTDYSLTISNLEQEDIATYFCQQGNTLPPTFGGGTKLEIKRTVAAPSVFIFPPSDEQLKSGTASVVCLLNNFYPREAKVQWKVDNALQSGNSQESVTEQDSKDSTYSLSSTLTLSKADYEKHKVYACEVTHQGLSSPVTKSFNRGEC
notes: also called CB-I
